Reference: article PMC6078970, “Nonequilibrium self-assembly dynamics of icosahedral viral capsids packaging genome or polyelectrolyte” (Nature Communications, 2018)

Target: the molecule itself
Experiment: SAXS (static); purified subunits alone, pH 7.5, ionic strength 0.5 M; radius of gyration 33 Å

B1: cowpea chlorotic mottle virus (CCMV) capsid protein, dimeric subunit (natural protein)
chain: RVVQPVIVEPIASGQGKAIKAWTGYSVSKWTASCAAAEAKVTSAITISLPNELSSERNKQLKVGRVLLWLGLLPSVSGTVKSCVTETQTTAAASFQVALAVADNSKDVVAAMYPEAFKGITLEQLTADLTIYLYSSAALTEGDVIVHLEVEHVRPTFDDSFTPVY
notes: capsid (coat) protein of cowpea chlorotic mottle virus, extracted from purified virions; 90 dimers make the T = 3 capsid; Protein as it stands in native virions; no tag; also called CCMV subunits; subunits; source: CCMV grown in blackeye cowpea leaves; capsid proteins extracted from purified virions (dialysis against 0.5 M CaCl2, centrifugation at 150,000 x g)
B1 was tested, and the “stoichiometry N” value was 2.
